Test system: MS2 coat protein
Test: apparent KD of MS2 coat protein; designed switch direction (-1 OFF switch, 1 ON switch): -1; higher = weaker reporter binding
In short: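 The apparent KD reported per design is the median over clusters of curve fits to normalised cluster fluorescence. The RNA switches were transcribed on Illumina chips by stalled E. coli RNA polymerase. SNAP-549-labelled MS2 coat protein was titrated from 0.7 or 1.5 nM, doubling up to 3 µM, in Tris-HCl pH 7.5 buffer containing KCl, MgCl2, BSA, DTT, tRNA and Tween-20, with no input, 200 uM small-molecule ligand, or an oligonucleotide input.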

[1] = input ligand: microRNA oligo, concentration not stated
[2] = Eterna round: R95, input ligand: FMN 200 uM
[3] = Eterna round: R95, input ligand: microRNA oligo, concentration not stated
[4] = Eterna round: R95, input ligand: none

Row | Sequence | apparent KD of MS2 coat protein [1] [nM] | apparent KD of MS2 coat protein (input ligand: FMN 200 uM) [nM] | apparent KD of MS2 coat protein (input ligand: none) [nM] | apparent KD of MS2 coat protein [2] [nM] | apparent KD of MS2 coat protein [3] [nM] | apparent KD of MS2 coat protein [4] [nM]
1 | GUCAGCUCGUCAGGAUAUACAUGAUAGAUCGAUUAAUUAAUUAAUUUAACAUGAGGAUCACCCAUGUAGAAGGGACGAGCUGAC [ENG2/1-B1] (Eterna round: R96, puzzle: Exclusion NG 2) | 39.8 |  |  |  |  | 
2 | UUGGGCAGAGGAUAUCGUACGUAGCACAUGAGGAUCACCCAUGUGGCCAGCCGCUAAACAUGAGAAGGUUGUGUAC [Eternabot (Original) Solution 8] (Eterna round: R97, puzzle: Exclusion 5) |  | 17.6 | 14.3 |  |  | 
3 | UAUUAGUAAGGAUAUCUCGUCAUGGACGUGAGUCCAUGACGAGAGAAGGUACAUGAGGAUCACCCAUGUCCAUU [Mod of Fisker 20 - Jieux - Exclusion 4] (Eterna round: R97, puzzle: Exclusion 4) |  | 16.5 | 14.1 |  |  | 
4 | UUUAAACAUGAGGAUCACCCAUGUUAGGAUAUACGAAUGCAGACACACACGGAUGCAAGUAGAAGGAACCAUGC [Design #8] (Eterna round: R97, puzzle: Exclusion 1) |  | 44.1 | 44.1 |  |  | 
5 | GUAGAUCGAGUUAGGAUAUGAUUAAAAUCCGGAUAUCAGAAGGAACUUGAGGAUCACCCAAGUAUAGAUGAUUU [JR_BMEx4_Sub055] (Eterna round: R97, puzzle: Brourd's mod of Exclusion 4) |  | 104 | 23.2 |  |  | 
6 | ACAUGAGGAUCACCCAUGUCUGGCUGGUCUGCUCCGGUUGUUGAGGAUAUAGUCCGGUGUUCGCGCUAGAAGGUGAGGGCUGGA [Aenatbe mod 40] (Eterna round: R96, puzzle: Exclusion NG 3) | 96.4 | 137 | 131 |  |  | 
7 | CUGAGCAGACGGAGAUCCAACAUGAGGAUCACCCAUGUCUCAUAAGCUUUUUGCUCAUCUUAUUGUACCUUGGUGCA [Mat - Sensor v3 - turn-off var 1 - JL Mod - D21] (puzzle: Sensor v3, turn-off variant 1) |  |  |  | 426 | 15.6 | 290
8 | GCGAAAGCAAGCAAGUGAAACAUGAGGAUCACCCAUGUCCUCAUUUGCUCGUCUUGUAAGCUAUGCGAAAGCAUAGC [Sensor 3, v1 - 5] (puzzle: Sensor v3, turn-off variant 1) |  |  |  | 12.1 | 53.3 | 11.9
9 | ACAAGCUUUACGAUCCUCUACAUGAGGAUCACCCAUGUGCUCGUAUUGUUUAGUACUAUCACGAAAGUGAUAGUACA [Sensor, turn off variant 1 v.5] (Eterna round: R97, puzzle: Sensor, turn-off variant 1) |  | 467 | 1090 |  |  | 
10 | GAUUAUGCAAGCUUUAGGGACAUGAGGAUCACCCAUGUUCGUCUUAUUGAUCUAGGUACGCUGACGUACCUAGAUCU [JL-sv1-2.32 Brourd mod] (puzzle: Sensor v3, turn-off variant 1) |  |  |  | 17 | 44.6 | 14.8
11 | GAGGUGUUAGGAUAUCGGAGAUGGAGACCGACGGGAUGAGCCGAGAAGGAACAUGAGGAUCACCCAUGUAGGUG [JR_Exclu4_Sub033] (puzzle: Exclusion 4) |  |  |  |  | 386 | 
12 | AGUGCUGCAGGAUAUUCUAUUAAUUACAUGAGGAUCACCCAUGUGAAUGGACAAGGGUGUGAAGAAGGGUGGUACG [Omei Ex5 A17i] (Eterna round: R97, puzzle: Exclusion 5) |  | 262 | 496 |  |  | 
13 | GCUGGUCGAGGAUAUGCAUUCGUGCUUCGGCACGUAAGGUCACAUGAGGAUCACCCAUGUAGAAGGCGACCAGC [E2/6-A1] (Eterna round: R97, puzzle: Exclusion 2) |  | 30.2 | 17.5 |  |  | 
14 | UUUAAUUUUUUUUUUUUACAAGCUUUUUGCUCGUCUUAUACAUGAGGAUCACCCAUGUAGAUGGAGGGUAAAUUAUC [JMF 86] (puzzle: Sensor v3, turn-off variant 2) |  |  |  | 17.4 | 27.9 | 14.5
15 | AUAAUGUGAGGAUAUCAGUCGUACAGCGAUAGCUGUACGACUGAGAAGGCACAUGAGGAUCACCCAUGUGGUCA [E4/5-A4] (Eterna round: R97, puzzle: Exclusion 4) |  | 162 | 562 |  |  | 
16 | GCUGGAAAAGGAUAUACAUAACGUGCGUCGGCACGAGACCUACAUGAGGAUCACCCAUGUAGAAGGUUUCCAGC [EX2 #74] (Eterna round: R97, puzzle: Exclusion 2) |  | 20.9 | 13.6 |  |  | 
17 | ACGUGAUAUCUGUCGGUGGACAUGAGGAUCACCCAUGUAAGCUCUUUGCUCGUCUUAUAACCCGGUGACAGACCUUC [Xerile] (puzzle: Sensor v3, turn-off variant 1) |  |  |  | 42.3 | 322 | 52.8

Row | Sequence | apparent KD of MS2 coat protein [1] [nM] | apparent KD of MS2 coat protein (input ligand: FMN 200 uM) [nM] | apparent KD of MS2 coat protein (input ligand: none) [nM] | apparent KD of MS2 coat protein [2] [nM] | apparent KD of MS2 coat protein [3] [nM] | apparent KD of MS2 coat protein [4] [nM]
18 | GCGUUUUGGUGAGGAUAUCGGCCCGAAACCGGGCAACAUGAGGAUCACCCAUGUACGUGAUCCUGCGAGAAGGCACCGAUUAUA [Bedi] (Eterna round: R96, puzzle: Exclusion NG 2) | 60.7 | 990 | 964 |  |  | 
19 | AGAAAACAUGAGGAUCACCCAUGUGAGGAUAUCGCGCUUAACAGGGUCACAGUGGUGUCGAGAAGGUGCCUGGG [Eternabot (L1) Solution 55] (Eterna round: R97, puzzle: Exclusion 1) |  | 144 | 66.3 |  |  | 
20 | CCCAUGCCCGAGGAUAUGCUGUACAAAAGUACUGCAGAAGGCGGGACAUGAGGAUCACCCAUGUGGCGAAAGCC [Omei Ex G7] (Eterna round: R97, puzzle: Exclusion 6) |  | 11.5 | 124 |  |  | 
21 | AUAAUGUCAGGAUAUCAGUCGACUAGCUUCGGCUAGUCGACUGAGAAGGGACAUGAGGAUCACCCAUGUGUUUC [E4/14-A1] (Eterna round: R97, puzzle: Exclusion 4) |  | 2390 | 505 |  |  | 
22 | AAUUAAACAAGCAGAUCCCACAUGAGGAUCACCCAUGUGCUCGUCUUAUAAGGUACUGUGACAAAAGUCACGGUACC [Mat - Sensor, turn-off var - Eli Mod - D67] (Eterna round: R97, puzzle: Sensor, turn-off variant 1) |  | 47.9 | 51.7 |  |  | 
23 | GCUUUUGGGCAAGGAUAUCCUGCGCGGUUCCGGUUCGUGUCUGUCACAUGAGGAUCACCCAUGUGGGAGAAGGUGCCUGCGGUG [Design 73] (Eterna round: R96, puzzle: Exclusion NG 2) | 11.7 | 21.5 | 19 |  |  | 
24 | GGGUCACAUGAGGAUCACCCAUGUGAGGAUAUGAUACUAUGUACUUCGGUACAUAGUAUCAGAAGGCACAUAAA [Ex1-3: 18] (puzzle: Exclusion 1) |  |  |  |  | 36.6 | 
25 | GUGUAGGGAGGAUAUACAUGAGGAUCACCCAUGUGAAUAAGAUAGAAUAAGAUAAAGUGUAGAAGGUCUAGUGU [Excluse me!!! 12 - Jieux - Exclusion 3] (puzzle: Exclusion 3) |  |  |  |  | 52.7 | 
26 | GUUAUGUCAGGAUAUGCUAAUGAUGAAUGAUCAGACAUGAUGUAGAAGGGACAUGAGGAUCACCCAUGUAAUAU [EX4 #7] (Eterna round: R97, puzzle: Exclusion 4) |  | 32.3 | 25 |  |  | 
27 | GCUGCAAAUGUAGGAUAUCUGCACGUGUAGUGCAGAGAAGGACAUGAGGAUCACCCAUGUAGAUCAGCAGCAAUUAAUUUAAUU [ENG1/5-A3] (Eterna round: R96, puzzle: Exclusion NG 1) | 34.5 | 288 | 42.2 |  |  | 
28 | CAGUACUGAGGAUAUACAUGAGGAUCACCCAUGUGUGUGCGUUUUGUAUGAAUGUUAUGUAGAAGGCGGUGCUG [JR_Ex3_Sub035] (Eterna round: R97, puzzle: Exclusion 3) |  | 201 | 39.1 |  |  | 
29 | CUUUUGUGAGGAUAUUAGUAGUAAAUGAAUAAAAUUAUUACUGAGAAGGUACAUGAGGAUCACCCAUGUUCCUU [Mat - Exclusion 4 - Eli Mod - D20] (Eterna round: R97, puzzle: Exclusion 4) |  | 16.3 | 14.3 |  |  | 
30 | GAUCCGUUAGGAUAUGCGGGUGUCACCAGAGUGAUAGCCUCGCAGAAGGAACAUGAGGAUCACCCAUGUAGCAA [Eternabot (L1) Solution 92] (Eterna round: R97, puzzle: Exclusion 4) |  | 111 | 38.6 |  |  | 
31 | GCAAGCUUUUUGGUUUUCAACAUGAGGAUCACCCAUGUUCGUCUUGUGCUCGGGCUUGGGCGGUGUCCGGGUUUGGG [Default title] (Eterna round: R97, puzzle: Sensor, turn-off variant 1) |  | 45.8 | 48.5 |  |  | 
32 | CAGUACUGAGGAUAUACAUGAGGAUCACCCAUGUGUCUUAUAUUAGGAAACUAGGUAUGUAGAAGGCAGUACUG [Omei Ex3 Mod of Eli 4.27 v4] (Eterna round: R97, puzzle: Exclusion 3) |  | 304 | 62.1 |  |  | 
33 | GCGUACUGAGGAUAUACAUGAGGAUCACCCAUGUAACACAGCAUAUAUAGAUAUUUUUGUAGAAGGCAGUAUGC [JR_Ex3_Sub057] (Eterna round: R97, puzzle: Exclusion 3) |  | 40.2 | 17.5 |  |  | 
34 | UACAUGAGGAUCACCCAUGUUUUGUCGUGUAUGGUAUUUAUCUAGGAUAUCAAUUUGUAUAUUUAUGAGAAGGAGAAUAUUAAU [JMF's solution 67] (Eterna round: R96, puzzle: Exclusion NG 3) | 30.7 |  |  |  |  | 

— the supplement of paper PMC9170038
